The source of these data is paper PMC8578620 (Nature Communications, 2021).

The target in this assay is CAP256.wk34.c80 SOSIP.RnS2 Env trimer containing the native N160 glycan site (HIV-1 clade C, CAP256.wk34.c80 …, stabilised).

B1: 2G12 (antibody, V domains shown)
VH: EVQLVESGGGLVKAGGSLILSCGVSNFRISAHTMNWVRRVPGGGLEWVASISTSSTYRDYADAVKGRFTVSRDDLEDFVYLQMHKMRVEDTAIYYCARKGSDRLSDNDPFDAWGPGTVVTVSP
VL: VVMTQSPSTLSASVGDTITITCRASQSIETWLAWYQQKPGKAPKLLIYKASTLKTGVPSRFSGSGSGTEFTLTISGLQFDDFATYHCQHYAGYSATFGQGTRVEIK
Consider B1, for which the binding result is given as “binds”.
